Measurements published in patent US20220340682A1 (Sanofi, published 2022).
Changes are numbered by the printed parent chain. One block for each binder: values may come before it.

Key:
[1] = target: T1, hCEACAM5, human CEACAM5 ECD (35-685) (human, UniProt P06731 35-685); assay: SPR screening (Biacore T200) of example 6.4
T1 construct: produced in HEK293; also called human CEACAM5 protein; human CEACAM5 extracellular domain
T1 sequence: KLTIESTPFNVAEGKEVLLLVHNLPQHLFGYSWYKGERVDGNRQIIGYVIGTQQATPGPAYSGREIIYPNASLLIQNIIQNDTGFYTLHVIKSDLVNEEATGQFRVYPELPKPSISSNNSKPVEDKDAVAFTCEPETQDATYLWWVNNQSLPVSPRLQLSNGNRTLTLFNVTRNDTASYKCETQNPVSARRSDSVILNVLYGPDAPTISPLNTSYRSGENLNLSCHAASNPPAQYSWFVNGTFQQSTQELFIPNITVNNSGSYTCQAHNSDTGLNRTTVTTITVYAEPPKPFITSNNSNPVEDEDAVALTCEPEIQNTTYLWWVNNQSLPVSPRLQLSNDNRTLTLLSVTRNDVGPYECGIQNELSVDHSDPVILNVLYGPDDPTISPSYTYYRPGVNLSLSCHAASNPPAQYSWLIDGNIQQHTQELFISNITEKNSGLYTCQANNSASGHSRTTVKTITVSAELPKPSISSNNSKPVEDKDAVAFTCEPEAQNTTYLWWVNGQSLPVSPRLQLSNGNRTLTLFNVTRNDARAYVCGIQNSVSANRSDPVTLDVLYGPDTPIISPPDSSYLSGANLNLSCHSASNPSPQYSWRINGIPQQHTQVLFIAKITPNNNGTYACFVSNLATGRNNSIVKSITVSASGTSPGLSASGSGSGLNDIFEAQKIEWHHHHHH
Procedure: (§1) To evaluate impact of these modifications, IgGs binding was determined by measuring SPR signals with a Biacore T200 unit (GE Healthcare). Anti-human Fc antibodies were coupled to a Series S CM5 chip via amine coupling kit to reach a level of 10,000 response units (RU). Approximately 300 to 600 RU of each variant were captured by injecting supernatants at 1 μg/mL with a contact time of 60 seconds and a flow rate of 10 μL/min. All experiments were performed at 25° C. with HBS-EP+(10 mM Hepes, 150 mM NaCl, 3 mM EDTA, 0.05% surfactant P20) as the running buffer. In a screening mode, the human CEACAM5 cynomolgus CEACAM5/human A3B3 domain was injected at 50 nM over the captured IgG variants at a flow rate of 30 μLimin for 1 minute. […]
(§2) For each experiment, response data were processed using a reference surface, thereby allowing correction for bulk refractive index changes and any non-specific binding. […] First, the binding activity is estimated by the proportion of the theoretical maximum signal measured (percentage of Rmax, see FIG. 16). Second, the percentage of remaining signal is calculated using dissociation report points (the first one 10 seconds after the end of the injection and the second one 50 seconds after the end of injection) and reflects the stability of binding (see FIG. 17).

[2] = target: T2, cCEACAM5, M. fascicularis CEACAM5 ECD (35-688) (Macaca fascicularis); assay: SPR screening (Biacore T200) of example 6.4
T2 construct: ECD followed by a 24 amino acid extension containing a His-Tag; also called cynomolgus CEACAM5; monkey CEACAM5
T2 chain: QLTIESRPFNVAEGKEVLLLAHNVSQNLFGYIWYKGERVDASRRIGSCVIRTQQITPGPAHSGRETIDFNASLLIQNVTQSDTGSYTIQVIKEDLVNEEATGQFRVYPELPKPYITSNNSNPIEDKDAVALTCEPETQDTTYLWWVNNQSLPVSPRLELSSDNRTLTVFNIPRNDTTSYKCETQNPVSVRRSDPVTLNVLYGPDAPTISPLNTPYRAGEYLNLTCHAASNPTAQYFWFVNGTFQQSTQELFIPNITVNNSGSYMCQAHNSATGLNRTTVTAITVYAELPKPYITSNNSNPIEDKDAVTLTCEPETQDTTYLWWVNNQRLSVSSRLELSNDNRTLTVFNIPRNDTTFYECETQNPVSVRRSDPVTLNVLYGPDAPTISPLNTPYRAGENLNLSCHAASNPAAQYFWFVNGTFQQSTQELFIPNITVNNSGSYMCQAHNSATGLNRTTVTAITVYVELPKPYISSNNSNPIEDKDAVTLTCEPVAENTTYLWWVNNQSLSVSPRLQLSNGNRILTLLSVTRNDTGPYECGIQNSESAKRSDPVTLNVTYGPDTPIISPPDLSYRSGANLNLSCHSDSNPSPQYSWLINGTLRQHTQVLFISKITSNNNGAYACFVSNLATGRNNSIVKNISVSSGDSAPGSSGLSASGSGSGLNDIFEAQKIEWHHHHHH
Procedure: as §1, §2

[3] = target: T1, hCEACAM5, human CEACAM5 ECD (35-685); assay: SPR (Biacore T200), IgG captured by anti-human Fc, antigen injected at 50 nM; % remaining signal after 50 seconds
Procedure: (§3) To evaluate impact of these modifications, IgGs binding was determined by measuring SPR signals with a Biacore T200 unit (GE Healthcare). Anti-human Fc antibodies were coupled to a Series S CM5 chip via amine coupling kit to reach a level of 10,000 response units (RU). Approximately 300 to 600 RU of each variant were captured by injecting supernatants at 1 μg/mL with a contact time of 60 seconds and a flow rate of 10 μL/min. All experiments were performed at 25° C. with HBS-EP+(10 mM Hepes, 150 mM NaCl, 3 mM EDTA, 0.05% surfactant P20) as the running buffer. In a screening mode, the human CEACAM5 cynomolgus CEACAM5/human A3B3 domain was injected at 50 nM over the captured IgG variants at a flow rate of 30 μLimin for 1 minute. A dissociation phase of 60 seconds was held before the surface was regenerated with 1 pulse injection of 3 M MgCl₂ at a flow rate of 10 μLiminute and a contact time of 30 seconds.
(§4) For each experiment, response data were processed using a reference surface, thereby allowing correction for bulk refractive index changes and any non-specific binding. Data were double referenced using response from blank injections. According to the screening method described in an application note from GE Healthcare (Application note 28-9777-72 AA), two parameters were considered to rank the variants with respect to binding characteristics. First, the binding activity is estimated by the proportion of the theoretical maximum signal measured (percentage of Rmax, see FIG. 16). Second, the percentage of remaining signal is calculated using dissociation report points (the first one 10 seconds after the end of the injection and the second one 50 seconds after the end of injection) and reflects the stability of binding (see FIG. 17).

[4] = target: T2, cCEACAM5, M. fascicularis CEACAM5 ECD …; assay: as above
Procedure: as §3, §4

[5] = target: T1, hCEACAM5, human CEACAM5 ECD (35-685); assay: SPR (Biacore T200), IgG captured by anti-human Fc, antigen injected at 50 nM; % Rmax reached
Procedure: as §3, §4

[6] = target: T2, cCEACAM5, M. fascicularis CEACAM5 ECD …; assay: as above
Procedure: as §3, §4

binding result [5]: binds | binding result [6]: binds
B6: LC_T53I-HC_S53A (antibody, V domains shown)
VH: EVQLVESGGGLVQPGGSLRLSCAASGFVFSSYDMSWVRQAPGKGLEWVSYISAGGGITYYADSVKGRFTISRDNSKNTLYLQMNSLRAEDTAVYYCAAHYFGSSGPFAYWGQGTLVTVSS
VL: DIQMTQSPSSLSASVGDRVTITCRASENIFSYLAWYQQKPGKAPKLLIYNTRILQSGVPSRFSGSGSGTDFTLTISSLQPEDFATYYCQHHYGTPFTFGQGTKLEIK
notes: combination variant of MAb2_VLg5VHg2

binding result [5]: binds | binding result [6]: binds
B7: LC_T51A-T94A (antibody, V domains shown)
VH: B6 VH with A53S
VL: B6 VL with T51A, I53T, T94A
notes: as for B6

binding result [3]: binds | binding result [4]: binds
B8: LC_S31A (antibody, V domains shown)
VH: B6 VH with A53S
VL: B6 VL with S31A, I53T
notes: variant of MAb2_VLg5VHg2

Continued, binder first:

B1: MAb2_VLg5VHg2 (antibody, human IgG1, V domains shown)
VH: B6 VH with A53S
VL: B6 VL with I53T
notes: Fused to human IgG1 and human Ckappa constant domains; tested as IgG in HEK293 supernatants diluted to 1 ug/ml; Parent of the alanine-scanning variants; also called MAb2_VLg5Hg2; humanized MAb2 grafted on IGHV3-23 / IGKV1D-39
binding result [1]: binds | binding result [2]: binds

B2: LC_T51A (antibody, V domains shown)
VH: B6 VH with A53S
VL: B6 VL with T51A, I53T
notes: variant of MAb2_VLg5VHg2
binding result [3]: binds | binding result [4]: binds

B3: LC_S31A-HC_G54Y (antibody, V domains shown)
VH: B6 VH with A53S, G54Y
VL: B6 VL with S31A, I53T
notes: as for B6
binding result [5]: binds | binding result [6]: binds

B4: HC_S53A (antibody, V domains shown)
VH: B6 VH
VL: B6 VL with I53T
notes: variant of MAb2_VLg5VHg2
binding result [3]: binds | binding result [4]: binds

B5: LC_T94A (antibody, V domains shown)
VH: B6 VH with A53S
VL: B6 VL with I53T, T94A
notes: variant of MAb2_VLg5VHg2
binding result [5]: binds
